Data from the DeepSol protein solubility set.

Assay: soluble on expression in E. coli; label from the status in PepcDB or PDB records

| Sequence | soluble on expression in E. coli |
| --- | --- |
| MSLSPSPAIPSNTDYPGPHSFDVSFQQSSTAKSATWTYSTELKKLYCQIAKTCPIQIKVMTPPPQGAVIRAMPVYKKAEHVTEVVKRCPNHELSREFNEGQIAPPSHLIRVEGNSHAQYVEDPITGRQSVLVPYEPPQVGTEFTTVLYNFMCNSSCVGGMNRRPILIIVTLETRDGQVLGRRCFEARICACPGRDRKADEDSIRKQQVSDSTKNGDGTKRPFRQNTEGHHHHHH | soluble |
| MSLSQHIRKLDSDVSERLKSQACTVSLASAVREIVQNSVDAHATTIDVMIDLPNLSFAVYDDGIGLTRSDLNILATQNYTSKIRKMNDLVTMKTYGYRGDALYSISNVSNLFVCSKKKDYNSAWMRKFPSKSVMLSENTILPIDPFWKICPWSRTKSGTVVIVEDMLYNLPVRRRILKEEPPFKTFNTIKADMLQILVMHPMISLNVQYTDKLRINTEVLFRSKNITEGLTKHQQMSQVLRNVFGAEGHHHHHH | soluble |
| MSLSQIISSNDVDFQAYMAEAEPQAKVLAAEAWRDDLVRTVEHGDQITGAKLPWSKTHDLLRFRPGEVTLWQGINGHGKSELLGQACIGFATQGERVCIASFEMKPQATLKRMLRQTAMNARPGVQAVDRLIDWSRDRLWLYDQQGTVTPAMLYAVIRYCADRLKVRHMVIDSLMKCVRGEDDYNGQKDFVDMLCTLARDLRMHIHLVHHAKKGENEDQVPGKFSAKGSGAIVDQVDQMLTVWRNKKKERIAEAELRKDGEVSADTHDSPDTLLICDKNRHGEWEGRIQLWRHADSLQFTGDKRRQPLDMIGALAEGHHHHHH | soluble |
| MSLSQNNPLRALLDKQDILLLDGAMATELEARGCNLADSLWSAKVLVENPELIREVHLDYYRAGAQCAITASYQATPAGFAARGLDEAQSKALIGKSVELARKAREAYLAENPQAGTLLVAGSVGPYGAYLADGSEYRGDYHCSVEAFQAFHRPRVEALLDAGADLLACETLPNFSEIEALAELLTAYPRARAWFSFTLRDSEHLSDGTPLRDVVALLAGYPQVVALGINCIALENTTAALQHLHGLTVLPLVVYPNSGEHYDAVSKTWHHHGEHCAQLADYLPQWQAAGARLIGGCCRTTPADIAALKARSEGGSHHHHHH | soluble |
| MSLSRPLLFALTALSLTAASLAHAADKKAADKPAPSAVSKADKALHDKFLTLDTHLDTPAHFGRPGWDIADHHEVEHDFSQVDLPRMNQGGLDGGFFVVYIGQGELTEKGYTYARDYALHRTIEIREMLAANPDTFEMALTSDDARRIAKAGKKFAFVSMENSWPVGEDLSLVETFYKEGLRMAGPVHFRNNQLADSSTDPKGKIWNGYSPLGLRWLAEANRLGIVIDVSHASDDVVDQSVALSKAPIIASHSGPKAVYDHPRNLDDARLKKIADAGGAICINSIYLTDTTPSPERKAALEALGRAPDMKTATPEAVKAYADKRAAIDKAHPAARGDFDLYMKSMLHVLKVAGPKGVCVGADWDGGGGMDGFEDITDLPKITARLKAEGYSDADIEAIWSGNVLRIVDAAQAYAKSVTKEGHHHHHH | soluble |
| MSLSRQCVLAGISRAALYARRKPKRIVQDDELLLRLIDEEYTRHPFYGSRKMVVHLGRCGHSVNRKWAQRLMRSLGLAGMAPGPNTSRAHPQHKVYPYLLRGVAISRPNQVWSTDITYIRLARGFAYLVAVIDWYSRRVLSWRISNSMETVFCVDCLEEALRIHGKPEVFNTDQGSQFTSEAFTSVLKREGVIISMDGRGRALDNIFVERLWRSVKHEDVYLKGYSAMGELLIGLTQYFTFYNGERPHQALKNLTPDVVYQRAQGGGAMIVDKYGAAQSLPMALRSTGTAFDEVRLALLCHVTHADAGLSWRCSEGTERKSRDEAWREGHHHHHH | not soluble |
| MSLSSHKPTVVLADSNDDFRSYLTSCLTEEFTIKSFRDGIEAMAYIKNEYPDLVICDTELQNMDGVELSSRLKTSCETSIIPIILYSSHIDINQHNRRKTSLADTFLQQPFSVTDLKLEMSILIKNTRFLRKSFLQRLFGEEFLETKASEILQDGKHPLISKVTKIILENLNNEKLTIDSIAKELGISRTSLYNKWTQLTGEALNKFILKIRMEKAHEMLKSGKYRVNEVPEKIGMKDMDNFREKYKKYFGKTPVDTIKNEGHHHHHH | soluble |
| MSLSSKRDIEANTDLNSITYIPTFPEPFERDNSHTTASFVSIQIRLLVASVTEENFLDTEHQIYYLLQRGSFSVYISYWKLLIQLFVNEFEAQQQKRDLNLPFRFDFSNLVHRLLYNLAQELITRTPDTIEKVKELALPLSGKYPIRPLFLSFLNKDNESDSAIIEALNPEVHPIFTTLKDLHRTNMSVSNITQNLFAVENKPNFLTMLSEFLKPLQGETLNDWIALILSEILAPGSQTSNQPSQPWIVQVPNVDVREVIEATEMGTKVNGIIKSLGTNNVNWNRVFNLMSTKFFLNKPVNATLSSLNYLFCILNSGPLVDQFFACDWSLYFKLRLSFLMYQWNYNSECLDLSSLPNIKKINKSIPLTKKSQLSLISVGKLNIELFLSRDEISKNPLFSSFHASFSEAYNNVPEYLAAVLISESKYFSLLVDNKSIIDELLISLVIKTYENNVIAFKELLKLVSKQKVIEVSRGIIASQNAQTINLVQALHDLGILDEVFEKLPIRDSLKLSPTAMHLGYLKFSEYIERNITLKTFVPTLDFIEAQTNIDELDEGHHHHHH | not soluble |
| MSLSSTSHERLEVEPIDESSILFADDDHYTSDTVCLVTGGGSGIGRATALAMAANGVTAVATDIDADGLAEVADTAADLDLDGAVETVAGDLANDADIEAIVETAASHGTVRYLANIAGLQHIDAIEDFPMEKYDQMHDVMLRAPLALSKRVIPHIRGTDDGVGAIGNMASVHGHYVTSDKVAYNVSKFGLRGLTQSIAAEGGDGLRGFSISTGYVKTPLVVDQIPDTAEQRGISVDEVIDDVMLGQARIKEMMDPIDVANLFVFGFSRHANHLNGGDLLFDGGMTKTYEGHHHHHH | not soluble |
| MSLSTCPAACHCPLEAPKCAPGVGLVRDGCGCCKVCAKQLNEDCSKTQPCDHTKGLECNFGASSTALKGICRAQSEGRPCEYNSRIYQNGESFQPNCKHQCTCIDGAVGCIPLCPQELSLPNLGCPNPRLVKVTGQCCEEWVCDEDSIKDPMEEGHHHHHH | not soluble |
| MSLSTGTMTLHRRLQVEYGLYQDRGRRPTMEDAHTVVSSLPIPQLEEQDEGNTTVSLFAIMDGHCGDSASYYSAAQLASKVSECWPCCMTTSSIVSSLHNAHILMDAQFLEIARSSNILAGCTCLSTVIVTEAHRIRIFTANLGDSRAILCRHGAFSAWLKFSPPSAAAEANANRLNLISFFPGSRLVIPLSLDQKPNISPDRERIEAAGAFTYPSLIKYKDKIAIRGPHRIFPGGLAVPRAIGDLPYKDMTYLNSLGVSAPLVSSDPVISIYDLTEQDEFILQACDGLWDVISSKEAAIFASVMHYIHQLARMPHKAFKKLRRPLKQILFKMGVTSYYSPTSVAVAEALCNHAKLRGSQDNVTVSVIFPEFIKSEGHHHHHH | not soluble |
| MSLSVAVSPLAPKSYPDMPALRGVRMATAAAGIKYKNRTDVLLMVFDKPASVAGVFTKSKCPSAPVDFCRANLGSGAARAVVVNSGNANAFTGVKGKAATELTAKSAAAAVGCSEGEIFLASTGVIGEPLDASKFAGVLGDMNVRAEADFWQEAAKAIMTTDTYPKVSTRTAEIGGVIVTINGISKGAGMIAPDMATMLSFVVTDADIEPAALQSLLSAGVGPTFNSVTVDSDTSTSDTLMLFATGAAAEDGQVKVTSADDERLSSFRAALNDLLKDLALQVVRDGEGARKMVEVTVTGAENDAAAKKIALSIANSPLVKTAVAGEDANWGRVVMAVGKSGEMADRDRLAIWFGGVRVAVNGERDPDYSEAETTAVMRLEDITVKVDIGLGQGTATVWTCDLTKEYVAINGDYRSEGHHHHHH | not soluble |
